Measured values as given in publication PMC3844076 (Nature, 2013).

Molecular target: the molecule itself
Assay: SEC

B1: EncM (as used for size exclusion chromatography) (enzyme, Streptomyces maritimus, UniProt Q9KHK2 1-464, looked up)
chain: MQFPQLDPATLAAFSAAFRGELIWPSDADYDEARRIWNGTIDRRPALIARCTSTPDVVAAVSFARKSGLLVAVRGGGHSMAGHSVCDGGIVIDLSLMNSIKVSRRLRRARAQGGCLLGAFDTATQAHMLATPAGVVSHTGLGGLVLGGGFGWLSRKYGLSIDNLTSVEIVTADGGVLTASDTENPDLFWAVRGGGGNFGVVTAFEFDLHRVGPVRFASTYYSLDEGPQVIRAWRDHMATAPDELTWALYLRLAPPLPELPADMHGKPVICAMSCWIGDPHEGERQLESILHAGKPHGLTKATLPYRALQAYSFPGAVVPDRIYTKSGYLNELSDEATDTVLEHAADIASPFTQLELLYLGGAVARVPDDATAYPNRQSPFVTNLAAAWMDPTEDARHTAWAREGYRALAGHLSGGYVNFMNPGEADRTREAYGAAKFERLQGVKAKYDPTNLFRLNQNIPPSSP
modifications: FAD covalently linked to His78 via the C8-methyl of the isoalloxazine ring
stoichiometry N: 2
